From the DeepSol protein solubility set

assay: soluble on expression in E. coli; label from the status in PepcDB or PDB records

| Sequence | soluble on expression in E. coli |
| --- | --- |
| MSDLPRKAVTRTAKLAALPLGFAGRATWGLGKRIVGESAEIVGQQLQQRTAEQLFKVLGELKGGAMKFGQALSVFESALPEEVAGPYRAALTKLQEAAPPMPTRTVHSVLAERLGEDWQELFLEFEDKPAAAASIGQVHRGVWQDGREVAVKVQYPGAGEALLSDLNQLSRFARLLGPLVPGMDIKPLITELKDRVSEELDYDLEAQAQRTHAEVFDDDPDIVVPDVIHQCEQVLITEWIDGIPMSEIISNGTQEQRDRAGQLLAHFLFSGPARTGLLHADPHPGNFRLLPGGPRGEDDWRLGVLDFGTVDRLPGGLPEPIGEALRMTLDGEAEAVYEMLCAEGFVKESIELAPDAVLEYLLPIIEPARVDAFTFTRGWMRSQAARIGDPRSPAYQLAKQLNLPPAYLLIHRVTLSTIGVLCQLGATVRLRDELEEWLVGFVAEGEAEVEEGEEADEDVYETEGTAAEALEHHHHHH | not soluble |
| MSDLYVTKEGDMVDAICWRYYAKGQQALAVERVYAANFGLADYGPILKAGITIVLPILPYPKATPVIRIWGSQS | not soluble |
| MSDNDDDFMCDDDEDYGLEYSEDSNSEPDVDLENQYYNSKALKEEEPKAALASFQKVLDLENGEKGEWGFKALKQMIKINFRLCNYDEMMVRYKQLLTYIKSAVTRNHSEKSINSILDYISTSKNMALLQNFYETTLDALRDAKNDRLWFKTNTKLGKLYFDRSDFTKLQKILKQLHQSCQTDDGEDDLKKGTQLLEIYALEIQMYTVQKNNKKLKALYEQSLHIKSAIPHPLIMGVIRECGGKMHLREGEFEKAHTDFFEAFKNYDESGSPRRTTCLKYLVLANMLMKSGINPFDSQEAKPYKNDPEILAMTNLVNSYQNNDINEFETILRQHRSNIMADQFIREHIEDLLRNIRTQVLIKLIRPYKNIAIPFIANALNIEPAEVESLLVSCILDDTIKGRIDQVNQVLQLDKINSSASRYNALEKWSNQIQSLQFAVVQKMA | soluble |
| MSDNLPWKTWTPDDLAPPPAEFVPMVESEETIIEEAEPSLEQQLAQLQMQAHEQGYQAGIAEGRQQGHEQGYQEGLAQGLEQGLAEAKAQQAPIHARMQQLVSEFQTTLDALDSVIASRLMQMALEAARQVIGQTPTVDNSALIKQIQQLLQQEPLFSGKPQLRVHPDDLQRVDDMLGATLSLHGWRLRGDPTLHPGGCKVSADEGDLDASVATRWQELCRLAAPGVV | not soluble |
| MSDRKAVIKNADMSEDMQQDAVDCATQAMEKYNIEKDIAAYIKKEFDKKYNPTWHCIVGRSGNFGSYVTHETKHFIYFYLGQVAILLFKSG | soluble |
| MSDSLPQRNGGQILVEALRRNAVDTVYCIPGESYLPVLDALYDTDGIRTVVTRHEGAASNMADAYGKLTGRPGICFVTRGPGATHAANGVHTAQQDSTPMILFVGQVESAFKGREAFQEVDYVQMFSGLAKWAVEIDRIERIPEIVGRAFSVATSGRPGPVVVALPEEILFGSAQVADAPEPRVLPGRPGATAMAELRELLANARRPLLVLGGSGWDSAARKRLGAFVEANGLPVATSFRRQDLFDNRDPHYAGQLGFGAAPALLERLRQADLLLVVGARLGETPSAGYSLVRSPAPAQTLIHVHPDSAELNRVYLARLPIQATPCAFAEALADLAPLPSSTWQDWREAAHADYLAYSTPAASDPAVQGVDLASVVAYLSENLPDDAVIANGAGNYAVWVHRFYRYRQARTQLAPTNGAMGYGLPAAIAASLRDPQRSVVCFAGDGCFMMYPQELATAAQFGATPVVIVVNNGMLGTIRMHQEREYPGRVSATRLDNPDFVALARAFGAHAERVECSADFPAAFRRARESGRPALLELLTDPRQITPQA | not soluble |
| MSDTEKYVARPAVGHLPLDDSWTPTSAEAIQDEPSPDEEEYKRQYTCRMVPNEGPLYQHYMLEAVAVADDEVKIPLEEVKEEPVELPAAVVHEVVALKPATRRESSISSDSGRGADCSTTSASALTSNTSMRRDRLVGTSNFGSQRSLWCELPEVRAAGLLEKLDDECKLRQEAYFEVITSEASYLRSLNVLITHFMASPQMLGSKSALSVLSDSDRKHLFSNIFAVRDCSERLLCDLETRLEENLILDDICDILSDHFDKHFEVYIKYCSNQVYQDRTLRRLKTENPGFLSAVQRLEENKQCQGLDMRSFLMLPMQRVTRYPLLLYAILDRITTTDDRYKTATDALTSSNRVVRDCNEGARRMERTEQLLDIDRRLIYKDADLKRIPLVSNSRYLVKKGVLTQLVERRSSNILQSRQKARTLHVFLFSDMIMITKKKLNGTFVCKDYAARRFVDMQPIEPDNPKIPLGATSNLVGRPHLFLCTLMRNARDKQTELLLSADSETDRERWLSAVRPPTSTNPEEKIYAEWDCPQALVVHAYQPSQADELQLNIGDSLNILRKMPDGWLYGERAGDGLGGWFPSSYVQAIINDHTRANNYRQRLRIIQAASGWHGNASPSSTRSGGMPLMDRLRRMSNPKTYFQSGTVGL | not soluble |
